Kd data for one molecule are collected here from article PMC2440032, “Odorranalectin Is a Small Peptide Lectin with Potential for Drug Delivery and Targeting” (PLoS ONE, 2008).

One assay concerns the target T1, fetuin (UniProt P12763 19-359).
T1 sequence (looked up): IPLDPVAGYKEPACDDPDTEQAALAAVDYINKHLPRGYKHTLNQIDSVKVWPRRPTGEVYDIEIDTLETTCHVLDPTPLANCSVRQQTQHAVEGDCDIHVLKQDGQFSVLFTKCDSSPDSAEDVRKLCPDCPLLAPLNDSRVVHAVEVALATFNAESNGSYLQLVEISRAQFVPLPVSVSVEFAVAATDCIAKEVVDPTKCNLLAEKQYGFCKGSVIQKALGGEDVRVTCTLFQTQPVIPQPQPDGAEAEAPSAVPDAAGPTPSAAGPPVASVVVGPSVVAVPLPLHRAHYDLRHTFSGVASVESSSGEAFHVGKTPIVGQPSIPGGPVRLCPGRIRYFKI
Kind of assay: SPR; Biacore 3000; odorranalectin immobilised on sensor chip CM-5 by amine coupling, glycoproteins as analytes diluted in HBS-EP (10 mM HEPES-buffered saline, 3 mM EDTA, 0.005% surfactant P-20, pH 7.4); 1:1 binding model; KD calculated from ka and kd. The conditions noted are these: both partners purified.

The target in assay [1] is Bovine submaxillary mucin (bovine, heavily O-glycosylated (sialylated) mucin preparation; the polypeptide is not given, and the main bovine submaxillary mucin (MUC19) is assumed with limits from the CHAIN feature; the pre). Described as above. To be noted: both partners purified.

B1: odorranalectin (peptide)
peptide: YASPKCFRYPNGVLACT
notes: odorranalectin, mature 17-residue peptide at the C-terminus of the 61-residue precursor, Odorrana grahami; follows the di-basic site K42R43 of the precursor; One intramolecular disulfide bond Cys6-Cys16; Immobilised on a CM-5 chip by amine coupling; Details of purification and synthesis are in Materials and Methods S1; also called lectin-like peptide; source: purified from O. grahami skin …
Broadly, the Kd is the concentration at which binding is half-saturated. Regarding B1, the Kd in the assay with fetuin is 211 nM; in assay [1], 2900 nM.
